# Test results reported in patent US6884600B1, “Protein phosphatase-1 catalytic subunit interactions” (Medical Research Council London, priority 1996, dated 2005).
# Like-named read-outs stand apart in the source and are kept apart here.
# B1: PP1c: catalytic subunit of PP1 (protein)
# chain: ADGELNVDSLITRLLEVRGCRPGKIVQMTEAEVRGLCIKSREIFLSQPILLELEAPLKICGDIHGQYTDLLRLFEYGGFPPEANYLFLGDYVDRGKQSLETICLLLAYKIKYPENFFLLRGNHECASINRIYGFYDECKRRFNIKLWKTFTDCFNCLPIAAIVDEKIFCCHGGLSPDLQSMEQIRRIMRPTDVPDTGLLCDLLWSDPDKDVQGWGENDRGVSFTFGADVVSKFLNRHDLDLICRAHQVVEDGYEFFAKRQLVTLFSAPNYCGEFDNAGGMMSVDETLMCSFQILKPSEKKAKYQYGGLNSGRPVTPPRTANPPKKR
# B2: M110-(D39-E309): rat aorta M110 fragment, residues 39-309, containing the seven ankyrin repeats (protein, UniProt Q10728 39-309, looked up, fragment)
# chain: DDGAVFLAACSSGDTDEVLKLLHRGADINYANVDGLTALHQACIDDNVDMVKFLVENGANINQPDNEGWIPLHAAASCGYLDIAEFLIGQGAHVGAVNSEGDTPLDIAEEEAMEELLQNEVNRQGVDIEAARKEEERIMLRDARQWLNSGHISDVRHAKSGGTALHVAAAKGYTEVLKLLIQAGYDVNIKDYDGWTPLHAAAHWGKEEACRILVDNLCDMETVNKVGQTAFDVADEDILGYLEELQKKQNLLHSEKRDKKSPLIESTANME
# B3: NIPP-1: nuclear inhibitor of PP1 (protein, UniProt Q12972 1-351, looked up)
# Nuclear inhibitor of protein …: MAAAANSGSSLPLFDCPTWAGKPPPGLHLDVVKGDKLIEKLIIDEKKYYLFGRNPDLCDFTIDHQSCSRVHAALVYHKHLKRVFLIDLNSTHGTFLGHIRLEPHKPQQIPIDSTVSFGASTRAYTLREKPQTLPSAVKGDEKMGGEDDELKGLLGLPEEETELDNLTEFNTAHNKRISTLTIEEGNLDIQRPKRKRKNSRVTFSEDDEIINPEDVDPSVGRFRNMVQTAVVPVKKKRVEGPGSLGLEESGSRRMQNFAFSGGLYGGLPPTHSEAGSQPHGIHGTALIGGLPMPYPNLAPDVDLTPVVPSAVNMNPAPNPAVYNPEAVNEPKKKKYAKEAWPGKKPTPSLLI
# Tests used:
# [1] = system: MLC20 and glycogen phosphorylase; test: MLC20 phosphatase:phosphorylase phosphatase activity ratio of PP1 preparations; assay type: biochemical
# Protocol: The M110 and M21 subunits are marked. The activity ratio, MLC20 phosphatase (MP):phosphorylase phosphatase (PhP) of the two preparations is also shown. Similar results were obtained in three different experiments. The activity ratio MP:PhP of PP1c is 0.07.
# (§1) ^32P-labelled rabbit skeletal muscle phosphorylase a (containing 1.0 mol phosphate per mol subunit) was prepared by phosphorylation with phosphorylase kinase, ^32P-labelled rabbit skeletal muscle glycogen synthase (containing 1.5 mol/mol subunit in the sites 3 region) was prepared by phosphorylation with glycogen synthase kinase-3 [24]). ^32P-labelled chicken gizzard MLC20 and ^32P-labelled chicken gizzard heavy meromyosin (containing 1.0 mol phosphate per mol subunit) were prepared by phosphorylation with smooth muscle myosin light chain kinase. The dephosphorylation of phosphorylase a (10 μM), glycogen synthase (1 μM) and MLC20 (1 μM) and heavy meromyosin (1 μM) was carried out as in [24]. One unit of activity (U) was that amount which released […] of phosphate in one minute.
# PP1M (0.01 ml, 0.4U/ml) was dissociated by incubation for 30 minutes with 500 μM arachidonic acid and then for 30 minutes with 0.08 ml of packed Protein G-Sepharose coupled to 0.08 mg of affinity purified anti-M21 antibody. The Protein G-Sepharose was pelleted, and the supernatant diluted at least 15-fold to allow the M110 subunit and PP1c to recombine. […]
# M21 subunit = test: Far Western blotting: interaction with the M21 subunit; assay type: binding, chicken; conditions: probe 0.2 μg/ml
# Chain of M21 subunit (as listed by the source): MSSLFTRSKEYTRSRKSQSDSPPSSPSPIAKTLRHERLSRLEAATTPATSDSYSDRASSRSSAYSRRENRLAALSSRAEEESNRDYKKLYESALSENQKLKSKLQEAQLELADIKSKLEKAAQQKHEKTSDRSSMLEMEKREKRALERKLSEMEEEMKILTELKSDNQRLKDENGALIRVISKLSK
# Protocol: A) PP1M 5 μg (track 1), 10 μg bacterial extract containing M110-(R714-I1004) (track 2), MBP-M110-(R714-I004) 1 μg (track 3), MBP-M110-(R714-L934) 1 μg (track 4), MBP-M110-(K933-I1004) 1 μg (track 5), MBP 1 μg (track 6), M110-(M1-E309) 2 μg (lane 7) and M110-(M1-S477) 2 μg (track 8) were run on a 12% SDS/polyacrylamide gel and stained with Coomassie Blue. B) same as A) except that 10-fold less protein was electrophoresed and after transfer to nitrocellulose the proteins were probed with digoxigenin-labelled M21 subunit (0.2 μg/ml). C) same as B) except that, after electrophoresis, the proteins were transferred to nitrocellulose and probed with digoxigenin-labelled M21-(M1-L146) (0.2 μg/ml).
# A) GST-M21 5 μg (track 1), M21 5 μg (track 2), M21-(M1-L146) 5 μg (track 3), M21-(M1-E110) 20 μg (track 4) and M21-(E110-K186) 5 μg (track 5) were run on 16.5% polyacrylamide gels and stained with Coomassie Blue. The marker proteins ovalbumin (43 kDa) and carbonic anhydrase (29 kDa) are indicated. B) GST-M21 0.5 μg (track 1), M21 0.5 μg (track 2), M21-M1-L146) 0.5 μg (track 3), M21-(M1-E110) 5 μg (track 4) and M21-(E110-K186) 5 μg (track 5) were electrophoresed as in A) and after transfer to nitrocellulose the blots were probed with digoxigenin-labelled MBP-M110-(K933-I1004) (0.2 μg/Ml). C) same as B) except that, after electrophoresis, the proteins were transferred to nitrocellulose and probed with digoxigenin-labelled M21 subunit (0.2 μg/ml).
# PP1M (0.5 μAg) was electrophoresed on a 12% SDS/polyacrylamide gel, transferred to nitrocellulose and probed with digoxigenin-labelled M21 subunit (0.2 μg/ml) (track 1) or digoxigenin-labelled M21-(M1-L146) (0.2 μg/ml) (track 2). The positions of the M110 subunit, the M21 subunit and PP1c are marked.
# Proteins were labelled with digoxigenin and Far Western analyses carried out as described, except that the digoxigenin-labelled probe was used at a concentration of 0.2 μg/ml instead of 2 μg/ml. SDS/polyacrylamide gel electrophoresis was carried out on 7.5-15% gels according to Laemmli and on 16.5% gels according to Schagger and von Jagow. Protein was estimated according to Bradford.
# myosin = biological target: T1, myosin (Gallus gallus, UniProt P10587); test: Myosin binding assay (pelleting with myosin); parameters: species or system chicken; conditions: myosin 1 μM, 15 min 0° C.
# T1 construct: from tissue; host or cells: chicken gizzard
# T1 sequence (P10587 whole entry): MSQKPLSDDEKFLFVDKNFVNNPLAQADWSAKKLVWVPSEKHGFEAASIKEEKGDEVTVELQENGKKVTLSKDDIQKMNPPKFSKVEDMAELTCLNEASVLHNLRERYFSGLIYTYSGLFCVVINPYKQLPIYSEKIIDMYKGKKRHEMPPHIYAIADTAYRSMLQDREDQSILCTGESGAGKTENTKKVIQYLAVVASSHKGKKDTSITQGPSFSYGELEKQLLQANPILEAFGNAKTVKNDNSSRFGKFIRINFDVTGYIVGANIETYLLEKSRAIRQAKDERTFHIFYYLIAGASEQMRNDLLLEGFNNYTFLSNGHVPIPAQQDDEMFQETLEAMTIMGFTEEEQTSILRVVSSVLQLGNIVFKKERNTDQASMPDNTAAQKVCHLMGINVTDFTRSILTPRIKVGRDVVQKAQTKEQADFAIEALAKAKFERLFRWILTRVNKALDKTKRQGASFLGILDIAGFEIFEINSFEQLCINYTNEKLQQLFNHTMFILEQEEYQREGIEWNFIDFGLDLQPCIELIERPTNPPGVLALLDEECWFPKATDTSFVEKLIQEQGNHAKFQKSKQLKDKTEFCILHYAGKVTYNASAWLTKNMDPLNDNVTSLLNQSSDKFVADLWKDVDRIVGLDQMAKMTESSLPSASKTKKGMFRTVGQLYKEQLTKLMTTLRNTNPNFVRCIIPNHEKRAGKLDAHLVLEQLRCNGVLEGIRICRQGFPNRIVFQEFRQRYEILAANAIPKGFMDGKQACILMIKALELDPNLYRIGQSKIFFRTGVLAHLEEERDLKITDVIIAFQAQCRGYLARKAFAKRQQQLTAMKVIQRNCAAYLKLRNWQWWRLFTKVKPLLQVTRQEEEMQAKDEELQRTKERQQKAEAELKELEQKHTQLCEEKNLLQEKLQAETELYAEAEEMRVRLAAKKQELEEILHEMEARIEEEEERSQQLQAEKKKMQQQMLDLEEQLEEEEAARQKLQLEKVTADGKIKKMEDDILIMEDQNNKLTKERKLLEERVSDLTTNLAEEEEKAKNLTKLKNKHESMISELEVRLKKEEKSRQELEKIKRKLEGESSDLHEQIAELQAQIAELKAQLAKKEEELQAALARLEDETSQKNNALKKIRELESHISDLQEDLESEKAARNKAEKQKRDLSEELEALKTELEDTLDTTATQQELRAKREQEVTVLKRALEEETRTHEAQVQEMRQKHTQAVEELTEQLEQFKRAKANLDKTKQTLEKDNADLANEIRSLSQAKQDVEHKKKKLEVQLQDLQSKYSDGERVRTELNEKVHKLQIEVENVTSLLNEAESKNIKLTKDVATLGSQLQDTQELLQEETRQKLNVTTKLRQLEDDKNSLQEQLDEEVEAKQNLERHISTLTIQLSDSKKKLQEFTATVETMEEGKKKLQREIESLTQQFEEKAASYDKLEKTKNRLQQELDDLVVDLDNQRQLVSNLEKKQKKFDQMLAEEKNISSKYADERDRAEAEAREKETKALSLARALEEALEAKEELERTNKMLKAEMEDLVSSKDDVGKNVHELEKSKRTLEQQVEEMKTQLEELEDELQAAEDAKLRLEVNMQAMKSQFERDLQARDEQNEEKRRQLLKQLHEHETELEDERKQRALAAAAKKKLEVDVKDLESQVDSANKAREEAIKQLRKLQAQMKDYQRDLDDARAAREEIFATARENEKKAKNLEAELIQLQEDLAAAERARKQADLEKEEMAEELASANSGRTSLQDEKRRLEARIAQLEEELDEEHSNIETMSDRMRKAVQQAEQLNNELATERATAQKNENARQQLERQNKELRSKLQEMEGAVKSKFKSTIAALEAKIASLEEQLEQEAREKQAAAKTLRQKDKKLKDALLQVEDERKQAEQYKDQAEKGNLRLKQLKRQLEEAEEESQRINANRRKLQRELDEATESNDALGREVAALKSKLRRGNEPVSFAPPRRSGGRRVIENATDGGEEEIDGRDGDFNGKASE
# T1 sequence (P02612 whole entry partner): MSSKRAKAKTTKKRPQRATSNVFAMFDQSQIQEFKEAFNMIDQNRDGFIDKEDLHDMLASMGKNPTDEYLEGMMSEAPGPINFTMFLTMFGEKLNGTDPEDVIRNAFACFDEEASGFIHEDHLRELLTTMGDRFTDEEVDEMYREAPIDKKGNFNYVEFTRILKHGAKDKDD
# T1 sequence (P02607 whole entry partner): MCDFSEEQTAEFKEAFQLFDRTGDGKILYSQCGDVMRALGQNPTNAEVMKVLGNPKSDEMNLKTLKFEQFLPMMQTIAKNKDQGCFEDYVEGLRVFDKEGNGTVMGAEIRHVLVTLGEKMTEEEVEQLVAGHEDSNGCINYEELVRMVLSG
# In short: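 PP1M, PP1c, PP1M(ΔM21) or M110 fragments (30 nM; M110 fragments and M21 at 100 nM) incubated 15 min at 0° C with 1 μM myosin in 10 mM Hepes pH 7.5, 50 mM KCl, 5 mM MgCl2, then centrifuged 2 min at 13,000×g. Supernatant, pellet and total analysed by immunoblot or P-light chain phosphatase activity.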
# PP1GL = test: Phosphorylase phosphatase activity of PP1GL (hepatic glycogen particles); assay type: biochemical, rat; conditions: hepatic glycogen particles containing PP1-GL
# Protocol: Hepatic glycogen particles were diluted in assay buffer to 0.6 phosphorylase phosphatase (PhP) mU per ml, incubated for 15 minutes at 30° C. with GM-(G63-T93) (closed circles), GM-(G63-K80) (open circles) or GM-(G63-N75) (closed triangles) and assayed as described in Example 1. The open triangles show the effect of GM-(G63-N75) which had been phosphorylated at Ser67 by PKA (pGM-(G63-N75)). Similar results were obtained in four experiments.
# (A) Hepatic glycogen protein particles containing PP1-GL were diluted and incubated for 15 min at 30° C. with the indicated concentrations of either M110[M1-F38] (open circles) or M110[M1-K35] (closed circles) and the phosphatase reactions were initiated by addition of ^32P-labelled glycogen phosphorylase. The results are expressed as a percentage of the activity determined in control incubations where the M110 peptides were omitted. Similar results were obtained in three separate experiments. (B) The experiment was carried out as in (A), except that the peptide GM[G63-N75] (“wild type”, WT) and variants in which either Val 66 (V66A) (closed triangles) or Phe 68 (F68A) (closed circles) were changed to Ala, were used instead of the M110 peptides. Similar results were obtained in three separate experiments.
# The myosin-associated form of PP1 (PP1M) was from chicken gizzard and the glycogen-associated form of PP1 (PP1G) from rabbit skeletal muscle. […]
# PP1c [2] = biological target: T2, PP1c (Oryctolagus cuniculus, UniProt P62143); test: Phosphorylase phosphatase activity of PP1c; assay type: biochemical, rabbit
# T2 construct: from tissue; host or cells: rabbit skeletal muscle (PP1G dissociated with LiBr)
# T2 sequence (P62143 whole entry): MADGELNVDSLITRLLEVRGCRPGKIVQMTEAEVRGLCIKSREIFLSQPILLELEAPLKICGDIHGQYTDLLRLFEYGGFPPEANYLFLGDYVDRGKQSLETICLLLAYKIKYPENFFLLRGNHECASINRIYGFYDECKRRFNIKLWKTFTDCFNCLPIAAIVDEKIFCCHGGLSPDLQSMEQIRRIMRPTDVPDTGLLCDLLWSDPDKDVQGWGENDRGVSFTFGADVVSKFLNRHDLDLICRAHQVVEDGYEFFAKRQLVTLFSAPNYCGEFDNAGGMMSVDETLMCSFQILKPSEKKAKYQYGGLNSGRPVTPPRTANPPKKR
# Protocol: (§2) A,B; Effects of M110-(M1-E309) (closed circles), M110-(M1-F38) (open circles) and M110-(D39-E309) (open triangles) on the MLC20 phosphatase […] and phosphorylase phosphatase (B) activities of PP1c were measured after incubating PP1c for 15 minutes at 30° C. with each fragment. The results are presented as a percentage of those obtained in experiments where the M110 fragments were omitted.
# (§3) C,D; The effect of M110-(M1-A150) (open circles) and M110-(L24-Y496) (closed circles) on the MLC20 phosphatase (C) and phosphorylase phosphatase (D) activities of PP1c were measured as in A,B.
# (B) The phosphorylase phosphatase activity of PP1c was assayed as in A in the presence or absence of 1 μM GM-(G63-T93) and 1.0 nM M110-(M1-E309). The results are presented (SEM for three experiments) as a percentage of the PP1c activity measured in the absence of GM-(63-T93), M110-(M1-F38) or M110-(M1-E309).
# (§4) The myosin-associated form of PP1 (PP1M) was from chicken gizzard and the glycogen-associated form of PP1 (PP1G) from rabbit skeletal muscle. The β isoform of PP1c was released from PP1G by incubation for 2 hours in 2M LiBr, then purified by gel-filtration on a 30×1 cm column of Superose 12 (Pharmacia, Milton Keynes, U.K.) in the presence of 0.5M LiBr. Glycogen protein particles from rat liver were used as the source of hepatic PP1G Digoxygenin-labelled PP1c (γ1-isoform, hereafter termed PP1) was prepared as in [9]. GL was expressed in E. coli as a glutathione-S-transferase (GST) fusion protein [7], termed GST-GL. The catalytic subunit of PP2A from bovine heart (PP2AC) was provided by Dr R. MacKintosh in this Unit. The phosphorylatable myosin light chain (MLC20) and heavy meromyosin from chicken gizzard were a gift from Dr M. Ikebe (Case Western Reserve University, Cleveland, USA). Thrombin and benzamidine-Agarose were purchased from Sigma (Poole, UK).
# as §1
# (§5) PP1c was isolated from the rabbit skeletal muscle PP1-GM complex as described previously (Johnson et al, 1996). Glycogen particles isolated from rat liver (Schelling el al, 1988) served as the source of PP1-GL. The dephosphorylation of glycogen phosphorylase (10 μM) and the isolated MLC20 of smooth muscle myosin (1 μM) by PP1c was carried out as described previously (Cohen et al., 1988; Alessi et al., 1992).
# PP1c [3] = biological target: T2, PP1c; test: MLC20 (myosin P-light chain) phosphatase activity of PP1c; assay type: biochemical
# Protocol: as §2, §3
# (A) The MLC20 phosphatase activity of PP1c was assayed after incubation for 15 minutes at 30° C. in the presence or absence of 1 μM GM-(G63-T93) and either 0.1 μM M110-(M1-F38) or 0.1 nM M110-(M1-E309).
# (1-38, open circles) or M110[M1-K35] (1-35, closed circles) were incubated with PP1c for 15 min at 30° C. and reactions started with the ^32P-labelled MLC20 substrate. The results are expressed as a % of the activity determined in control incubations where the M110 peptides were omitted (100%). Similar results were obtained in three separate experiments.
# as §4, §1, §5
# ^32P-labelled myosin P-light chains containing 1.0 mol phosphate per mol subunit was prepared by phosphorylation with smooth muscle myosin light chain kinase. The dephosphorylation of myosin P-light chain (1 μM) was carried out as in [4] and one unit of activity (U) was that amount which catalysed the release of 1 μmole of phosphate in one min. When assaying PP1M in immunoprecipitates from the myofibrillar extracts, the tubes were shaken continuously and 3 nM okadaic acid was included to inhibit any PP2A present.
# PP1 = conditions: Beullens et al., 1992; read-out: inhibitory constant for PP1; cited from earlier work
molecule,measurement,setting,value
B1,MLC20 phosphatase:phosphorylase phosphatase activity ratio,[1],0.07
same,recognised by digoxigenin-labelled M21 subunit in Far Western blotting,M21 subunit,not
same,binding to myosin,myosin,neither PP1c (FIG. 22) nor bovine serum albumin (data not shown) bound to myosin
B2,effect on the phosphorylase phosphatase activity of PP1GL,PP1GL,can enhance the phosphorylase activity of PP1GL
same,effect on the phosphorylase phosphatase activity of PP1c,PP1c [2],did not inhibit the phosphorylase phosphatase activity of PP1c
same,effect on the phosphorylase phosphatase activity of PP1c,"PP1c [2]; each peptide individually, at concentrations up to 1 μM",no effect
same,effect on the MLC20 phosphatase activity of PP1c,PP1c [3],failed to stimulate the MLC20 phosphatase activity of PP1c
B3,Ki,PP1,1 pM
